# Patent US20180044434A1 (PUBLIC UNIVERSITY CORPORATION YOKOHAMA CITY UNIVERSITY, published 2018)
# T1: Ala mutant of TA0096, SEQ ID NO: 39
# T1 peptide: EENMDDQWMQDEAEIGY
# T2: Ala mutant of TA0096, SEQ ID NO: 29
# T2 peptide: EEAMDDQWMQDEMEIGY
# T3: Ala mutant of TA0096, SEQ ID NO: 41
# T3 peptide: EENMDDQWMQDEMEAGY
# T4: Ala mutant of TA0096, SEQ ID NO: 35
# T4 peptide: EENMDDQWAQDEMEIGY
# T5: Ala mutant having 3-amino acid substitution, SEQ ID NO: 44
# T5 peptide: AAAMDDQWMQDEMEIGY
# T6: Ala mutant having 3-amino acid substitution, SEQ ID NO: 49
# T6 peptide: EENMDDQWMQDEMEIAA
# T7: TA0096 (peptide antigen corresponding to positions 340 to 356 of PAD4)
# T7 peptide: EENMDDQWMQDEMEIGY
# T8: Ala mutant having 3-amino acid substitution, SEQ ID NO: 45
# T8 peptide: EENAAAQWMQDEMEIGY
# T9: Ala mutant of TA0096, SEQ ID NO: 34
# T9 peptide: EENMDDQAMQDEMEIGY
# T10: Ala mutant of TA0096, SEQ ID NO: 42
# T10 peptide: EENMDDQWMQDEMEIAY
# T11: Ala mutant having 3-amino acid substitution, SEQ ID NO: 48
# T11 peptide: EENMDDQWMQDEAAAGY
# T12: Ala mutant of TA0096, SEQ ID NO: 28
# T12 peptide: EANMDDQWMQDEMEIGY
# T13: Ala mutant of TA0096, SEQ ID NO: 37
# T13 peptide: EENMDDQWMQAEMEIGY
# T14: Ala mutant having 3-amino acid substitution, SEQ ID NO: 47
# T14 peptide: EENMDDQWMAAAMEIGY
# T15: Ala mutant of TA0096, SEQ ID NO: 27
# T15 peptide: AENMDDQWMQDEMEIGY
# T16: Ala mutant of TA0096, SEQ ID NO: 30
# T16 peptide: EENADDQWMQDEMEIGY
# T17: Ala mutant of TA0096, SEQ ID NO: 38
# T17 peptide: EENMDDQWMQDAMEIGY
# T18: Ala mutant of TA0096, SEQ ID NO: 36
# T18 peptide: EENMDDQWMADEMEIGY
# T19: Ala mutant of TA0096, SEQ ID NO: 40
# T19 peptide: EENMDDQWMQDEMAIGY
# T20: Ala mutant of TA0096, SEQ ID NO: 33
# T20 peptide: EENMDDAWMQDEMEIGY
# T21: Ala mutant of TA0096, SEQ ID NO: 31
# T21 peptide: EENMADQWMQDEMEIGY
# T22: Ala mutant of TA0096, SEQ ID NO: 43
# T22 peptide: EENMDDQWMQDEMEIGA
# How the values were obtained:
# [1] = target: T23, full-length recombinant mouse PAD4 (mouse, UniProt Q9Z183 1-666); assay: ELISA, coated mouse PAD4; antibody 0.0039063 ug/mL
# T23 construct: mature; Full-length recombinant
# [2] = target: T23, full-length recombinant mouse PAD4; assay: ELISA, coated mouse PAD4; antibody 0.25 ug/mL
# [3] = target: T24, full-length recombinant human PAD4 (human, UniProt Q9UM07 1-663); assay: ELISA, coated human PAD4; antibody 6.104E-05 ug/mL
# T24 construct: Full-length recombinant; also called peptidylarginine deiminase 4
# [4] = target: T24, full-length recombinant human PAD4; assay: ELISA, coated human PAD4; antibody 0.0625 ug/mL
# [5] = target: T24, full-length recombinant human PAD4; assay: ELISA, coated human PAD4; antibody 0.0002441 ug/mL
# [6] = target: T24, full-length recombinant human PAD4; assay: ELISA, coated human PAD4; antibody 1 ug/mL
# [7] = target: T24, full-length recombinant human PAD4; assay: ELISA, coated human PAD4; antibody 0.0039063 ug/mL
# [8] = target: T23, full-length recombinant mouse PAD4; assay: ELISA, coated mouse PAD4; antibody 0.015625 ug/mL
# [9] = target: T23, full-length recombinant mouse PAD4; assay: ELISA, coated mouse PAD4; antibody 0.0625 ug/mL
# [10] = target: T23, full-length recombinant mouse PAD4; assay: ELISA, coated mouse PAD4; antibody 0.0009766 ug/mL
# [11] = target: T1, Ala mutant of TA0096, SEQ ID NO: 39; assay: ELISA, coated peptide
# [12] = target: T2, Ala mutant of TA0096, SEQ ID NO: 29; assay: ELISA, coated peptide
# [13] = target: T3, Ala mutant of TA0096, SEQ ID NO: 41; assay: ELISA, coated peptide
# [14] = target: T4, Ala mutant of TA0096, SEQ ID NO: 35; assay: ELISA, coated peptide
# [15] = target: T5, Ala mutant having 3-amino acid …; assay: ELISA, coated peptide
# [16] = target: T6, Ala mutant having 3-amino acid …; assay: ELISA, coated peptide
# [17] = target: T7, TA0096 (peptide antigen corresponding …); assay: ELISA, coated peptide
# [18] = target: T8, Ala mutant having 3-amino acid …; assay: ELISA, coated peptide
# [19] = target: T9, Ala mutant of TA0096, SEQ ID NO: 34; assay: ELISA, coated peptide
# [20] = target: T10, Ala mutant of TA0096, SEQ ID NO: 42; assay: ELISA, coated peptide
# [21] = target: T11, Ala mutant having 3-amino acid …; assay: ELISA, coated peptide
# [22] = target: T12, Ala mutant of TA0096, SEQ ID NO: 28; assay: ELISA, coated peptide
# [23] = target: T13, Ala mutant of TA0096, SEQ ID NO: 37; assay: ELISA, coated peptide
# [24] = target: T14, Ala mutant having 3-amino acid …; assay: ELISA, coated peptide
# [25] = target: T15, Ala mutant of TA0096, SEQ ID NO: 27; assay: ELISA, coated peptide
# [26] = target: T16, Ala mutant of TA0096, SEQ ID NO: 30; assay: ELISA, coated peptide
# [27] = target: T17, Ala mutant of TA0096, SEQ ID NO: 38; assay: ELISA, coated peptide
# [28] = target: T18, Ala mutant of TA0096, SEQ ID NO: 36; assay: ELISA, coated peptide
# [29] = target: T19, Ala mutant of TA0096, SEQ ID NO: 40; assay: ELISA, coated peptide
# [30] = target: T20, Ala mutant of TA0096, SEQ ID NO: 33; assay: ELISA, coated peptide
# [31] = target: T21, Ala mutant of TA0096, SEQ ID NO: 31; assay: ELISA, coated peptide
# [32] = target: T22, Ala mutant of TA0096, SEQ ID NO: 43; assay: ELISA, coated peptide
# [33] = target: T23, full-length recombinant mouse PAD4; assay: ELISA, coated mouse PAD4; antibody 0.0002441 ug/mL
# T24 sequence (Q9UM07 whole entry): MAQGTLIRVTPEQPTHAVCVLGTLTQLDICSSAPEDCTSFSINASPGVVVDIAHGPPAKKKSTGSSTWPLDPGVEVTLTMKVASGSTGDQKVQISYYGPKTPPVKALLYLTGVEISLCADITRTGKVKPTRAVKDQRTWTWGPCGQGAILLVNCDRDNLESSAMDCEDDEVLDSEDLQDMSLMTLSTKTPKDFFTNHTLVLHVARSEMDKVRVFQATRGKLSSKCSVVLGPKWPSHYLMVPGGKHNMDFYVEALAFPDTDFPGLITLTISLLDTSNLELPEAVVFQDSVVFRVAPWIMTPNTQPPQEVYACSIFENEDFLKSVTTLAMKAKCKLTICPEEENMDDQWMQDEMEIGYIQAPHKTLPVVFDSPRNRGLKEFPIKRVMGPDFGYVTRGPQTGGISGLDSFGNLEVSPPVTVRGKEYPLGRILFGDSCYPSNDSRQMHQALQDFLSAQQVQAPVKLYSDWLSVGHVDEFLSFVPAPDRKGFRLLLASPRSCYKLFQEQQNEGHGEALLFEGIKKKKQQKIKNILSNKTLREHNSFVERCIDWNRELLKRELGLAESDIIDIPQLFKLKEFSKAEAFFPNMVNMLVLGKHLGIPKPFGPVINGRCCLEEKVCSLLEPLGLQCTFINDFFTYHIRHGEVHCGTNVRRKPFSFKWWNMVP
# T23 sequence (Q9Z183 whole entry): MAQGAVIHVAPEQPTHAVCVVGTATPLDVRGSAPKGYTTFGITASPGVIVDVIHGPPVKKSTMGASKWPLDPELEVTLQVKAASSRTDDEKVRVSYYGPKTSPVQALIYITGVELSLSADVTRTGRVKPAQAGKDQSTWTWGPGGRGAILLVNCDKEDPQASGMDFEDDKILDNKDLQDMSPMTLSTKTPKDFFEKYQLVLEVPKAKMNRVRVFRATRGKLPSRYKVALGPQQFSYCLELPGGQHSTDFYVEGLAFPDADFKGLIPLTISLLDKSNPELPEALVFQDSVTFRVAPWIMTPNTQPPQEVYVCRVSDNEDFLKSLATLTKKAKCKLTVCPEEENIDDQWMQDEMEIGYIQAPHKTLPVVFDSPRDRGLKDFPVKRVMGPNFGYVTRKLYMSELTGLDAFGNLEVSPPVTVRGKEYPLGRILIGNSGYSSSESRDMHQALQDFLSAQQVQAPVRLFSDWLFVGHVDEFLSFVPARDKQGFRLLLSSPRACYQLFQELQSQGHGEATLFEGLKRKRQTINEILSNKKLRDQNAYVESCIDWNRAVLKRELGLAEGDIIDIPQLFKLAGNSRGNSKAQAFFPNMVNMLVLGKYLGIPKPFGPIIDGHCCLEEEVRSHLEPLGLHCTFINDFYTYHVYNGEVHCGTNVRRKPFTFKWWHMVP
OD 490/630 nm [1],OD 490/630 nm [2],OD 490/630 nm [3],OD 490/630 nm [4],OD 490/630 nm [5],OD 490/630 nm [6],OD 490/630 nm [7],OD 490/630 nm [8],OD 490/630 nm [9],OD 490/630 nm [10],OD 490/630 nm [11],OD 490/630 nm [12],OD 490/630 nm [13],OD 490/630 nm [14],OD 490/630 nm [15],OD 490/630 nm [16],OD 490/630 nm [17],OD 490/630 nm [18],OD 490/630 nm [19],OD 490/630 nm [20],further results,Binder
1.07,2.25,0.063,2.15,0.206,2.15,1.31,2.02,2.24,0.386,1.89,2.05,1.85,0.023,1.98,1.89,1.81,0.039,0.021,1.88,OD 490/630 nm [21]: 1.87; OD 490/630 nm [22]: 2; OD 490/630 nm [23]: 1.8; OD 490/630 nm [24]: 1.25; OD 490/630 nm [25]: 1.95; OD 490/630 nm [26]: 2.03; OD 490/630 nm [27]: 1.89; OD 490/630 nm [28]: 1.91; OD 490/630 nm [29]: 1.85; OD 490/630 nm [30]: 2.09; OD 490/630 nm [31]: 1.67; OD 490/630 nm [32]: 1.92; OD 490/630 nm [33]: 0.152,"A11 (antibody, V domains shown, Chicken variable regions in a mouse chimeric antibody (IgG1); also called anti-PAD4 antibody A11) VH: AVTLDESGGGLQTPGGALSLVCKASGFDFSSYGMGWMRQAPGKGLEYVAAIRNDGSWTGYGAAVKGHATISRDNGQSTVRLQLNNLRAEDTGTYYCAKTTGSRGGSIDAWGHGTEVIVS VL: ASTQPSSVSANLGGTVEITCSGGGRYYYGWYQQKSPGSAPVTVIYANDKRPSDIPSRFSGSKSGSTGTLTITGVQAEDEAVYFCGSAETSSYVFGAGTTLTVL"
0.956,2.23,0.07,2.12,0.176,2.11,1.36,1.86,2.19,0.416,1.77,1.92,1.8,0.017,1.9,1.85,1.79,0.022,0.047,1.83,OD 490/630 nm [21]: 1.81; OD 490/630 nm [22]: 2; OD 490/630 nm [23]: 1.2; OD 490/630 nm [24]: 1.34; OD 490/630 nm [25]: 1.89; OD 490/630 nm [26]: 1.91; OD 490/630 nm [27]: 1.91; OD 490/630 nm [28]: 1.9; OD 490/630 nm [29]: 1.82; OD 490/630 nm [30]: 1.93; OD 490/630 nm [31]: 1.38; OD 490/630 nm [32]: 1.88; OD 490/630 nm [33]: 0.122,"E9 (antibody, V domains shown, Chicken variable regions in a mouse chimeric antibody (IgG1); also called anti-PAD4 antibody E9) VH: AVTLDESGGGLQTPGGTLSLVCKGSGFTFSSYGMGWMRQAPGKGLEYVAAIRNDGSWTGYGSAVKGRATISRDNGQSTVRLQLNNLRAEDTATYYCAKTSGSSGGSVDAWGHGTEVIVS VL: ASTQPSSVSANLGGTVEITCSGGGRYYYGWYQQKSPGSAPVTVIYANDKRPSDIPSRFSGSKSGSTGTLTITGVQAEDEAVYFCGSAETSSYVFGAGTTLTVL"
1.39,2.25,0.082,2.11,0.187,2.1,1.36,2.21,2.24,0.542,1.87,1.94,1.89,0.253,1.92,1.92,1.85,0.019,0.038,1.85,OD 490/630 nm [21]: 1.89; OD 490/630 nm [22]: 1.96; OD 490/630 nm [23]: 1.88; OD 490/630 nm [24]: 1.85; OD 490/630 nm [25]: 1.93; OD 490/630 nm [26]: 2.03; OD 490/630 nm [27]: 1.96; OD 490/630 nm [28]: 1.87; OD 490/630 nm [29]: 1.88; OD 490/630 nm [30]: 1.98; OD 490/630 nm [31]: 1.48; OD 490/630 nm [32]: 1.88; OD 490/630 nm [33]: 0.181,"G9 (antibody, V domains shown, Chicken variable regions in a mouse chimeric antibody (IgG1); also called anti-PAD4 antibody G9) VH: AVTLDESGGGLQTPGGALSLVCKASGFTFSTYAMGWMRQAPGKGLEYVAAIRNDGSWTGYGAAVKGRATILRDNGQSTVRLQLSNLRAEDTGTYYCAKYTGSSGGSIGAWGHGTEVIVS VL: AVTQPASVSANLGGTVEITCSGGGRYYYGWYQQKSPGSAPVTVIYANDKRPSDIPSRFSGSKSGSTGTLTITGVQAEDEAVYFCGSAETSSYVFGAGTTLTVL"
